Target: monomeric CDK2 (GST-CDK2/CIV in the absence of cyclin A) (UniProt P24941 1-298)
Assay: real-time fluorescence assay with Cy3-labelled sensor
Description: Fluorescence emission of Cy3 was measured at 590 nm following excitation at 544 nm on Polarstar™ fluorimeter.
Fluorescence kinase assays were performed in 96-well plates in a thermostated chamber (Polarstar BMG) at 30° C. in 200 ul phosphate buffer saline, pH 7.2, 150 mM NaCl, in the presence of 5 mM MgCl2, 0.5 mM ATP, except when stated otherwise. […] Changes in Cy3 fluorescence emission were recorded at 590 nm following excitation at 544 nm. […] Data analysis and curve fitting were performed using the GraFit Software (Erathicus Ltd).

B1: GST-CDKACTH1 labelled with Cy3 (CDKACTH1-Cy3) (other)
chain: GEVVDSHLSDMLQQLHSVNASKPSERGLVRQEEAEDPASIPIFWVSKWVDYSDKYGLGYQLSDNSVGVLFNDSTRLILYNDGDSLQYIERDGTESYLTVSSHPNSLMKKITLLKYFRNYMSEHLLKAGANITPREGDELARLPYLRTWFRTRSAIILHLSNGSVQINFFQDHTKLILSPLMAAVTYIDEKRDFRTYRLSLLEEYGSSKELASRLRYARTMVDKLLSSRSASNRLKASPGAGGTGGLPGGGGCSTPKKAKKL
modifications: Cy3-maleimide coupled to the unique cysteine of the substrate sequence (position -2 of the TP phosphorylation site)
notes: The GST tag was not removed; also called CDKACT-Cy3; CDKACT-H1 biosensor; not shown: N-terminal GST tag from the pGex6P1 vector, kept on the biosensor
B1: no binding.

From patent US20150355179A1 (CENTRE NATIONAL DE LA RECHERCHE SCIENTIFIQUE CNRS, published 2015)
